A word on the EC50: it is the concentration needed to bring the measured effect to its halfway point.

The values below come from patent EP4674869A1 (Immuneoncia Therapeutics, Inc., dated 2026).

Assay [1] addresses T1, CD47 (UniProt Q08722 19-323, limits assumed).
T1 construct: whole, on cells; also called CD47 on cancer cells (MDA-MB-231, Raji)
As to the kind of experiment: binding to Raji cancer cells; method not stated.

Assay [2] addresses T1, CD47. As to the kind of experiment: binding to MDA-MB-231 cancer cells; method not stated.

T1 sequence (Q08722 19-323 limits assumed): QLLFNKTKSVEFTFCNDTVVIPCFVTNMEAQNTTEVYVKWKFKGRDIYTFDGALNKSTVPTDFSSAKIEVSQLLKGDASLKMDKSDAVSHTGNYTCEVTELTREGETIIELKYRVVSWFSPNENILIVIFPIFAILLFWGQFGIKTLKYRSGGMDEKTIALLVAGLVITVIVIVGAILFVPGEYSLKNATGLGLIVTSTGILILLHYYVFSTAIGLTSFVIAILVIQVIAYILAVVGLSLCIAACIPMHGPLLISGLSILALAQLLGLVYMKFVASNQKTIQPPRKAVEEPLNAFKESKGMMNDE

B1: IMC-002 (antibody, human IgG4 S228P, lambda, V domains shown)
VH: QVQLVQSGAEVKKPGASVKVSCKASGYTFTSYYMHWVRQAPGQGLEWMGIINPSGGSTSYAQKFQGRVTMTRDTSTSTVYMELSSLRSEDTAVYYCARSTLWVSEFDYWGQGTLVTVSS
VL: QSALTQPASVSGSPGQSISISCTGTSSDVGGHNYVSWYQQHPGKAPKLMIYDVRNRPSGVSNRFSGSKSGSTASLTISGLQTEDEADYYCNSYTGSRTYVFGSGTKLTVLG
notes: Fully human IgG4 kappa antibody with an S228P hinge mutation; also called anti-CD47 antibody; C47B10-H3-D4
B1: the results for the EC50 in the assay with CD47 [1] and with CD47 [2] were 4.77 mg/L and 5.73 mg/L, respectively.
